Key:
[1] = target: H-Ras (N-terminal His6-tagged fusion), P01112
GST-CCaaX, P01120 = target: T1, GST-CCaaX, P01120
T1 chain: CCIIS

GST-Ras2CCaaX, P01120 = target: T2, GST-Ras2CCaaX, P01120
T2 chain: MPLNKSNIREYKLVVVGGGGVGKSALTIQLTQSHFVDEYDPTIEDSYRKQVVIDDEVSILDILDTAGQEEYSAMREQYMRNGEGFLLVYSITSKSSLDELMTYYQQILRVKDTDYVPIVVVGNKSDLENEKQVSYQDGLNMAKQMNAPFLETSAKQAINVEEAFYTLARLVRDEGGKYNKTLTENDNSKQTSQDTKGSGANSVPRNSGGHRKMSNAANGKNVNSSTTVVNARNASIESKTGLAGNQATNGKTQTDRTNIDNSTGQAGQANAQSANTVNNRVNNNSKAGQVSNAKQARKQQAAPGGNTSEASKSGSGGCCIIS

[2] = target: T3, GST-Ras2(HV)CCaaX, P01120
T3 chain: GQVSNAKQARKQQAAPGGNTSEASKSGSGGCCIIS

Chain of H-Ras (N-terminal His6-tagged fusion), P01112 (P01112 whole entry, looked up, the tested form may be a part): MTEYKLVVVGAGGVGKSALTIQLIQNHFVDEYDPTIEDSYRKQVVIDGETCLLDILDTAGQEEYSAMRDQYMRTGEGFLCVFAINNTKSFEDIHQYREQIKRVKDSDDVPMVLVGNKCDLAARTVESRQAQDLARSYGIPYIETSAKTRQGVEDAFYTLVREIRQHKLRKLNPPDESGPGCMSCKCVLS

B1: Erf2p/Erf4p complex (GST-Erf4p/FLAG-Erf2p on GSH beads) (protein)
chain 1: MALVSRRSTRSESTSITKEEHTGEGSLTKLFFRWLVTLEGDQDINDGKGYISLPNVSNYIFFLGGRFRTVKGAKPLWLGVLLAIVCPMVLFSIFEAHKLWHTQNGYKVLVIFFYYFWVITLASFIRTATSDPGVLPRNIHLSQLRNNYQIPQEYYNLITLPTHSSISKDITIKYCPSCRIWRPPRSSHCSTCNVCVMVHDHHCIWVNNCIGKRNYRFFLIFLLGAILSSVILLTNCAIHIARESGGPRDCPVAILLLCYAGLTLWYPAILFTYHIFMAGNQQTTREFLKGIGSKKNPVFHRVVKEENIYNKGSFLKNMGHLMLEPRGPSFVSARKPHEAGDWRFMDLSPAHSFEKIQKI
chain 2: MCDSHQKEEDNANTSERALFFNYHEFSYSFYEDLGSEDAKPTEHDEDHKLCITHFPNVYAARGSAEFQVTRVVRVPRRFDESRSSLETPQFSTQLPGSEPAAIVGDDGTSFVRCGRYDIGDHVFGCSSVSPLSEYLSAAELAEVVHRVNGFLLREEGEVFGWRNLSGLLLDMLTGGLWSWVLGPLLSRPVFQESLALEQYVAQLNSPGGLLHERGVRLVLPRRSGCLSLDFVVPRPK
palmitate transferred (PAT assay) [1]: 40 vs 2720 pmol palmitate transferred/min/\u00b5mol substrate
palmitoylation level relative to Ras2p [1]: levels much lower (5%) than the proposed natural substrate, Ras2p
in vitro palmitoylation relative to GST-(HV)CCaaX (GST-CCaaX, P01120): reduced 10-fold compared with GST-(HV)CCaaX
in vitro palmitoylation (PAT assay) (GST-Ras2CCaaX, P01120): palmitoylated GST(HV)CCIIS to levels similar to full-length GST-Ras2CCIIS
palmitate transferred (PAT assay) (Myristoylated Gi1): 55 vs 2720 pmol palmitate transferred/min/\u00b5mol substrate
palmitoylation level relative to yeast Ras2p (Myristoylated Gi1): ~5% that of yeast Ras2p
acceleration of the spontaneous rate of palmitoylation [2]: ~160-fold
palmitate incorporated into the Ras2p substrate (in vitro PAT assay, [3H]palmitoyl-CoA) [2]: 0.14 pmol/min
palmitate transferred (PAT assay) [2]: 2720 pmol palmitate transferred/min/\u00b5mol substrate

Reference: patent publication US7488592
